Like-named read-outs stand apart in the source and are kept apart here.

This is an account of results in patent publication US20240425593A1.

For assay [1], the target named is monkey PD-1-hFc (monkey). Briefly: ELISA, coated monkey PD-1-hFc. A general note: ELISA stands for enzyme-linked immunosorbent assay.
In assay [2] the target is monkey PD-1-hFc (monkey). Nature of the assay: ELISA, coated monkey PD-1-hFc. The source holds these as a separate data set.
The next assay deals with CD64 protein (UniProt P12314). Nature of the assay: BLI (Octet ForteBio), CD64 on SA biosensor, antibody in solution. On the technique in general: In BLI a coated tip is dipped into the sample, and binding shifts an interference pattern.
The target of the next assay is FcRn protein (UniProt P55899). Briefly: BLI (Octet ForteBio), FcRn on SA biosensor, antibody in PBST pH6.0.
Assay [3] addresses PD-1 on Jurkat-PD-1-NFAT cells (UniProt Q15116). Briefly: cell-based or functional assay.
The target in assay [4] is human PD-1-ECD-mFc (human; mouse) (UniProt Q15116). Briefly: ELISA, coated human PD-1-mFc.
Assay [5] deals with full-length human PD-1 on CHO-hPD-1 cells (human) (UniProt Q15116). Briefly: flow cytometry, FITC-labelled antibody on CHO-hPD-1 cells.
Assay [6] has the same target. Briefly: flow cytometry on CHO-hPD-1 cells with FITC-labeled antibody. For orientation: A flow cytometer gives signals particle by particle.
A further assay has as its target human PD-1-His (human) (UniProt Q15116). Briefly: BLI (Octet ForteBio), antibody on ProA biosensor, PD-1-His in solution.

Chain of control antibody 3 (tirelizumab, IMGT ID: 757) (HC): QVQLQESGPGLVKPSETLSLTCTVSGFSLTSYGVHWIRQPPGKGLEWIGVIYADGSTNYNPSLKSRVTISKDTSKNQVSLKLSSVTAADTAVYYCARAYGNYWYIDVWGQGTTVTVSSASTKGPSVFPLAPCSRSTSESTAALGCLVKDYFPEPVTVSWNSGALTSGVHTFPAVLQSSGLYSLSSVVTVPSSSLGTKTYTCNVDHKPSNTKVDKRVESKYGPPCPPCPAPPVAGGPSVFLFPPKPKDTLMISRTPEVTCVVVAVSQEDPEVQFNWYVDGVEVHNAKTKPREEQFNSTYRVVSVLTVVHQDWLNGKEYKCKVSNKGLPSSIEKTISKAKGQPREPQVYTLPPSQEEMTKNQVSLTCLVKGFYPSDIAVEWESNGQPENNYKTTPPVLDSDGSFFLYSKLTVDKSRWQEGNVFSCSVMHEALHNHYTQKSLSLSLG
Chain of control antibody 3 (tirelizumab, IMGT ID: 757) (LC): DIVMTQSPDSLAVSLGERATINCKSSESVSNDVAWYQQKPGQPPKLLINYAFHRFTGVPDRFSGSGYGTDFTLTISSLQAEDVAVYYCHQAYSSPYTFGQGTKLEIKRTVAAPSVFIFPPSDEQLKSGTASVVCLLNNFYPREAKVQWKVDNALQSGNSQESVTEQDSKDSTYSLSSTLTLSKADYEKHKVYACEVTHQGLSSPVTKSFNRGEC
Chain of monkey PD-1-hFc (monkey) (chain, as listed by the source limits assumed): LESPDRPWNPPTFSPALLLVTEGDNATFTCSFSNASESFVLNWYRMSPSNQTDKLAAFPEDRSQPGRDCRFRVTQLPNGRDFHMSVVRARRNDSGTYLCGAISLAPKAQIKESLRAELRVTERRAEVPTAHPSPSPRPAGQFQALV
Chain of full-length human PD-1 on CHO-hPD-1 cells (human) (Q15116 25-288): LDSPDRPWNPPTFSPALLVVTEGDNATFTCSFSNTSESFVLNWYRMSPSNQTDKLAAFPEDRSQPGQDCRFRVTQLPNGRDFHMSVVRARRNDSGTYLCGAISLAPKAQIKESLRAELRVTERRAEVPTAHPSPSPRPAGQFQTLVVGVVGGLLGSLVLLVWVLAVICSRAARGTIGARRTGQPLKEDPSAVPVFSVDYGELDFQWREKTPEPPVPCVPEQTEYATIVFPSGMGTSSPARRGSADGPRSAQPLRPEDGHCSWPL
Chain of FcRn protein (P55899 24-297 limits assumed, chain 1 of 2): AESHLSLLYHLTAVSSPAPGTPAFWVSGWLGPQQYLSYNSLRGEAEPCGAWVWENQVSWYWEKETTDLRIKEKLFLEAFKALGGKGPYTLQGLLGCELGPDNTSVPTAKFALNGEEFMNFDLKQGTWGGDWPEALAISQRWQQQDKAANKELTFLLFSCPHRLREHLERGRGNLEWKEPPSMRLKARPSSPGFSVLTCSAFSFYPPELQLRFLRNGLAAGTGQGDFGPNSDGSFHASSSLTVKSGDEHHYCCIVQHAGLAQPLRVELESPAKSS
Chain of FcRn protein (chain, as listed by the source limits assumed, chain 2 of 2): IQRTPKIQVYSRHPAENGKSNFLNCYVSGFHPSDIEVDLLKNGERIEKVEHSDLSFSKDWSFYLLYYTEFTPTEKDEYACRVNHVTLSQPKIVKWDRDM
Chain of CD64 protein (P12314 16-288 limits assumed): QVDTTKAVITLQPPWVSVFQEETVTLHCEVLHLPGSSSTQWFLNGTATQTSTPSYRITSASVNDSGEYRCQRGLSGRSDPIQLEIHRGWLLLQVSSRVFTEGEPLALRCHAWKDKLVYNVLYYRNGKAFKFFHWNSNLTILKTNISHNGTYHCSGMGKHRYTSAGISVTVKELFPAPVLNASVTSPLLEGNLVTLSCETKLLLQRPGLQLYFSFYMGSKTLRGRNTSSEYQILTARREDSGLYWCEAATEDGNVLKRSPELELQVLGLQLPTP
Chain of PD-1 on Jurkat-PD-1-NFAT cells (Q15116 25-288 limits assumed): as the sequence (Q15116 25-288) above
Chain of human PD-1-His (human) (Q15116 25-170): as the sequence (chain, as listed by the source limits assumed) above, with E2D, L19V, A35T, R67Q, A144T counted along it
Chain of human PD-1-ECD-mFc (human; mouse) (Q15116 25-170): as the sequence (chain, as listed by the source limits assumed) above, with E2D, L19V, A35T, R67Q, A144T counted along it

For the substance “control antibody 1 (pembrolizumab, IMGT ID: 472)”, the EC50 with monkey PD-1-hFc (monkey) [1] came out at 0.131 nM; with monkey PD-1-hFc (monkey) [2], 0.32 nM. The Kd in the assay with CD64 protein came out at 6.94 nM; in the assay with FcRn protein, 16.8 nM.
As to “control antibody 3 (tirelizumab, IMGT ID: 757)”, in [3], the EC50 by the PD-1/PD-L1 luciferase reporter system came to 3.79 nM. In addition, the EC50 in [4] came to 0.121 nM; with monkey PD-1-hFc (monkey) [2] it was 0.278 nM; in [5] it was 0.094 nM. The Kd with FcRn protein came to 14.5 nM; in the assay with human PD-1-His (human), 5.95 nM. In addition, the EC50 (read off the curve) in [6] came to 10 ng/mL.

In general, EC50 refers to the concentration at which the effect is half-maximal. Usually Kd stands for the equilibrium constant for the complex coming apart. For orientation: EC50 (read off the curve) means the concentration that produces a half-maximal response.
